Test results from publication PMC8805405 (Journal of Nanobiotechnology, 2022).
Positions count from the first letter of the chain named. Like-named read-outs stand apart in the source and are kept apart here.

B1: humanized anti-TNF-α mAb C5 (C + b) (antibody, V domains shown)
VH: EVQLVESGGGLVKPGGSLRLSCAASGFTFSNHWMNWVRQAPGKGLEWVGEIRSKSINSATHYAAPVKGRFTISRDDSKNTLYLQMNSLKTEDTAVYYCTRNYYGSTYDYWGQGTTVTVSS
VL: EIVLTQSPDFQSVTPKEKVTITCRASQSIGSSLHWYQQKPDQSPKLLIKYASQSFSGVPSRFSGSGSGTDFTLTINSLEAEDAATYYCHQSSSWPFTFGQGTKLEIK
B2: humanized anti-TNF-α mAb C1 (A + a) (antibody, V domains shown)
VH: B1 VH with A64E, P65S
VL: B1 VL with S28F, I29V, L33I, Q53E, F55M, H89Q, S92H
notes: VH grafting condition a (Remicade CDRs on human germline IGHV3-15*07-JH5); heavy-chain constant region; VL grafting condition A (Remicade CDRs on human germline IGKV6-21*01-JK2); light-chain constant region; source: Expi293, transfected, purified (protein A sepharose)
B3: humanized anti-TNF-α mAb C3 (B + b) (antibody, V domains shown)
VH: B1 VH
VL: B1 VL with S28F, S92H
notes: VH grafting condition b (Remicade CDRs on human germline IGHV3-15*07-JH5); as the heavy chain of m4; heavy-chain constant region; VL grafting condition B (Remicade CDRs on human germline IGKV6-21*01-JK2); light-chain constant region; source: Expi293, transfected, purified (protein A sepharose)

Target: T1, recombinant human TNF-α (Homo sapiens, UniProt P01375)
T1 construct: tumor necrosis factor alpha, human, recombinant; also called tumor necrosis factor (TNF)-α; source: bought: R&D Systems
Test: BLI; BLItz; human TNF-α (5 μg/mL in 10 mM acetate, pH 5) immobilised on AR2G biosensors by EDC/s-NHS; various concentrations of antibody at room temperature; global fit, BLItz Pro 1.2

T1 sequence (P01375 77-233): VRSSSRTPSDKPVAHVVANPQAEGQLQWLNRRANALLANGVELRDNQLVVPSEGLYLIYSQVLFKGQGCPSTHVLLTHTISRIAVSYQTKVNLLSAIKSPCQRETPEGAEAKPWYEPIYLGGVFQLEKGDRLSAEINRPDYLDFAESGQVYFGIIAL

Row | Binder | Kd | koff | kon | Kd (both partners purified) | koff (both partners purified) | kon (both partners purified)
1 | B1 | 17.7 nM | 0.000475 s⁻¹ | 26800 M⁻¹ s⁻¹ |  |  | 
2 | B2 |  |  |  | 0.935 nM | 0.000134 s⁻¹ | 143000 M⁻¹ s⁻¹
3 | B3 |  |  |  | 5.5 nM | 0.00015 s⁻¹ | 27200 M⁻¹ s⁻¹
